Substrate in the series: CN(C)c1ccc(/C=C/c2cc[n+](C)cc2)cc1
As to the kind of experiment: Concentration-dependent uptake of ASP+ in OCT2-expressing HEK293 cells. The format is cell-based, human. Particulars: other: OCT2-expressing HEK293, 0–100 μM, 1 min; 37.0 °C. The procedure:
Figure 2 Time and Concentration-Dependent Accumulation of ASP^+ in HEK293 Cells Overexpressing OCT2 or MATE1. HEK cells expressing empty vector (EV), OCT2, or MATE1 were incubated for different time periods (0.5–20 min, 10 μM ASP^+, 37 °C) to evaluate time-dependent uptake (A) or with increasing concentrations of ASP^+ (0–100 μM, 1 min 37 °C) for concentration-dependent uptake (B) on a shaker. Specific transport uptake is shown in dashed lines. Intracellular fluorescence was quantified and normalized to protein concentration. Data are presented as mean ± SE (n = 3).
OCT2- and MATE1-overexpressing HEK293 cells were seeded in clear poly-^D-lysine-coated 24-well plates (Fisher Scientific, Hanover Park, IL, USA) and grown for 24 h until approximately 90% confluent. […]
GraphPad Prism v6 (GraphPad Software, La Jolla, CA, USA) was used for statistical analysis. Km and Vmax were calculated using nonlinear regression (Michaelis–Menten enzyme kinetics equation, (Y = Vmax × X/(Km + X), fit for least squares). Data with two variables were analyzed using a two-way ANOVA followed by a one-way ANOVA and/or Dunnett’s post-hoc test for multiple comparisons. IC50 values were calculated via a nonlinear regression to fit least squares. Differences were considered statistically significant at p < 0.05.

B1: human OCT2 (Homo sapiens) (protein)
chain: MPTTVDDVLEHGGEFHFFQKQMFFLLALLSATFAPIYVGIVFLGFTPDHRCRSPGVAELSLRCGWSPAEELNYTVPGPGPAGEASPRQCRRYEVDWNQSTFDCVDPLASLDTNRSRLPLGPCRDGWVYETPGSSIVTEFNLVCANSWMLDLFQSSVNVGFFIGSMSIGYIADRFGRKLCLLTTVLINAAAGVLMAISPTYTWMLIFRLIQGLVSKAGWLIGYILITEFVGRRYRRTVGIFYQVAYTVGLLVLAGVAYALPHWRWLQFTVSLPNFFFLLYYWCIPESPRWLISQNKNAEAMRIIKHIAKKNGKSLPASLQRLRLEEETGKKLNPSFLDLVRTPQIRKHTMILMYNWFTSSVLYQGLIMHMGLAGDNIYLDFFYSALVEFPAAFMIILTIDRIGRRYPWAASNMVAGAACLASVFIPGDLQWLKIIISCLGRMGITMAYEIVCLVNAELYPTFIRNLGVHICSSMCDIGGIITPFLVYRLTNIWLELPLMVFGVLGLVAGGLVLLLPETKGKALPETIEEAENMQRPRKNKEKMIYLQVQKLDIPLN
notes: expressed in transfected cells; gift of Dr. Kathy Giacomini, UCSF
In the case of B1, the Km was 2.9 µM and the Vmax was found to be 8.1 nmol/mg/min.
